Substitutions are numbered along the chain they refer to. Names and notes keep the numbering of the source. Numbered stars: 1 amine (or outer) side, 2 acyl side, 3 side chain; on linkers, the order of the positions; unused ones are H or OH. Square brackets hold non-standard residues; d marks the D form. Ends that are not written are not given here. Peptide text beside a SMILES is read from it. * marks the point of attachment. Tyr(OMe) = O-methyl-tyrosine, COc1ccc(C[C@H](N[*:1])C(=O)[*:2])cc1; Orn = NCCC[C@H](N)C(=O)O; Hexanoyl = CCCCCC(=O)*; Aib = CC(C)(N)C(=O)O
T1: human PAC1 (Homo sapiens, UniProt P41586)
T1 construct: expressed in transfected cells
T1 sequence (P41586 21-468): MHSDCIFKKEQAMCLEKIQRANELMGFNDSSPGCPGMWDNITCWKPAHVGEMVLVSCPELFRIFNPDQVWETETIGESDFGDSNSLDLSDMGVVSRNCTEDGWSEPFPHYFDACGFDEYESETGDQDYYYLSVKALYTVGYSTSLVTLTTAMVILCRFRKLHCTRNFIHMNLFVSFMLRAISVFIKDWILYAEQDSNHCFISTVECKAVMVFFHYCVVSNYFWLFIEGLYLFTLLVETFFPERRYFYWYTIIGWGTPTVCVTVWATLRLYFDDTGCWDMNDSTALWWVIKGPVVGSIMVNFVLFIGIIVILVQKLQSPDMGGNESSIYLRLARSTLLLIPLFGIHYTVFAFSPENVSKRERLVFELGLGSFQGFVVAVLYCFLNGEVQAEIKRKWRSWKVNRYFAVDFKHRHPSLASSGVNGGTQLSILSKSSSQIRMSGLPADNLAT

T2: human VPAC2 receptor (human, UniProt P41587 24-438)
T2 sequence (looked up): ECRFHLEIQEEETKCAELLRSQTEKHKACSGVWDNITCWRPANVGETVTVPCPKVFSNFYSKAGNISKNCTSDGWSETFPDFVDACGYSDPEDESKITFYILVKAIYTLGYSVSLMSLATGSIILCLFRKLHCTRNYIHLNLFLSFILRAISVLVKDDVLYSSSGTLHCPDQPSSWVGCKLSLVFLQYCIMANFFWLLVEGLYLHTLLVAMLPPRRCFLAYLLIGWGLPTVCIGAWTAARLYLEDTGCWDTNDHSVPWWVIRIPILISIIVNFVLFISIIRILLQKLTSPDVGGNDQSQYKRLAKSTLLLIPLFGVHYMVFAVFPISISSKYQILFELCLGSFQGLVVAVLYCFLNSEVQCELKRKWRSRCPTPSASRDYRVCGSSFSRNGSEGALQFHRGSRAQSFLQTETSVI

T3: rat VPAC1 receptor (rat, UniProt P30083 31-459)
T3 sequence (looked up): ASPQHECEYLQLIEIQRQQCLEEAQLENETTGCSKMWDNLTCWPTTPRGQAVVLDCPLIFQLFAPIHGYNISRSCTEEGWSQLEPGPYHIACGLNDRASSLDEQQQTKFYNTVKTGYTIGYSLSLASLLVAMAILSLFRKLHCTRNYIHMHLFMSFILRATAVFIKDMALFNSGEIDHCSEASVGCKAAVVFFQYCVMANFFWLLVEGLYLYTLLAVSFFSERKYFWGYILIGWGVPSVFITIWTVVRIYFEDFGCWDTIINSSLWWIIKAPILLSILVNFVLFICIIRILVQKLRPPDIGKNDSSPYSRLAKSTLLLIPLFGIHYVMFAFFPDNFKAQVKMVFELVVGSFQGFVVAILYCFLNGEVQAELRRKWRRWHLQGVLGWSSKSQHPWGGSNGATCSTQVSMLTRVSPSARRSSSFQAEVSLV

T4: rat VPAC2 receptor (rat, UniProt P35000 23-437)
T4 sequence (looked up): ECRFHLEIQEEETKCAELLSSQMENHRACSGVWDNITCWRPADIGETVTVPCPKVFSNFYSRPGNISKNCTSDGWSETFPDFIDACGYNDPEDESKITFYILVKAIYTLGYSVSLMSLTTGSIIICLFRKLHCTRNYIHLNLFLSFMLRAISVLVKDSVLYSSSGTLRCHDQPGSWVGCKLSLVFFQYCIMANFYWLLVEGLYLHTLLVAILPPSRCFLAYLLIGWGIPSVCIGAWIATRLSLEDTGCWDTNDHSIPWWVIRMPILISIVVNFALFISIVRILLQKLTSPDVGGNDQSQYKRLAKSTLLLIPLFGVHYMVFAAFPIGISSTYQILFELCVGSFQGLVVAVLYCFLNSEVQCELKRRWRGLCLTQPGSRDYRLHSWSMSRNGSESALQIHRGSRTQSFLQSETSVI

B1: VPAC2 receptor peptide agonist P409 (peptide)
peptide: Hexanoyl-HSEAVFTEQ[Tyr(OMe)]TR[Aib]R[Aib]QLAA[Aib]KYLQSIK[Aib]KGGPSSGAPPPS
B2: VPAC2 receptor peptide agonist P367 (peptide)
peptide: Hexanoyl-HSDAVFTDNYTLLR[Aib]QVAA[Aib]KYLQSI[Orn]N[Orn]GGPSSGAPPPS
B3: VPAC2 receptor peptide agonist P395 (peptide)
peptide: HSDAVFTDQYTXLRXQLAAXXYLQSIXXGGPSSGAPPPS
modifications: N-terminal hexanoyl (C6); Orn at 12, 21, 27 and 28; Aib at 15 and 20
B4: VPAC2 receptor peptide agonist P487 (peptide)
peptide: B3 peptide with D8E
modifications: N-terminal hexanoyl (C6); Tyr(OMe) at 10; Orn at 12, 21, 27 and 28; Aib at 15 and 20; C-terminal amide (-NH2)
B5: VPAC2 receptor peptide agonist P396 (peptide)
peptide: B3 peptide with L17V
modifications: N-terminal hexanoyl (C6); Orn at 12, 21, 27 and 28; Aib at 15 and 20
B6: VPAC2 receptor peptide agonist P407 (peptide)
peptide: Hexanoyl-HSDAVFTDQYTR[Aib]R[Aib]QLAA[Aib]KYLQSIK[Aib]KGGPSSGAPPPS
B7: VPAC2 receptor peptide agonist P390 (peptide)
peptide: HSDAVFTDNYTXLRXSVAAXKYLQSIXNXGGPSSGAPPPS
modifications: N-terminal hexanoyl (C6); Orn at 12, 27 and 29; Aib at 15 and 20
B8: VPAC2 receptor peptide agonist P405 (peptide)
peptide: Hexanoyl-HSDAVFTDNYTR[Aib]R[Aib]QVAA[Aib]KYLQSIK[Aib]KGGPSSGAPPPS

Molecular target: T1, human PAC1
Assay: Filter binding assay, 125I-labeled PACAP-27 tracer, PAC1 membranes
Settings: read-out: Human PAC1 Receptor Binding (IC50; nM)

`CCCCCC(=O)N[C@@H](Cc1c[nH]cn1)C(=O)N[C@@H](CO)C(=O)N[C@@H](CC(=O)O)C(=O)N[C@@H](C)C(=O)N[C@H](C(=O)N[C@@H](Cc1ccccc1)C(=O)N[C@H](C(=O)N[C@@H](CC(=O)O)C(=O)N[C@@H](CO)C(=O)N[C@@H](Cc1ccc(O)cc1)C(=O)N[C@H](C(=O)N[C@@H](CCCN)C(=O)N[C@@H](CC(C)C)C(=O)N[C@@H](CCCNC(=N)N)C(=O)NC(C)(C)C(=O)N[C@@H](CCC(N)=O)C(=O)N[C@H](C(=O)N[C@@H](C)C(=O)N[C@@H](C)C(=O)NC(C)(C)C(=O)N[C@@H](CCCCN)C(=O)N[C@@H](Cc1ccc(O)cc1)C(=O)N[C@@H](CC(C)C)C(=O)N[C@@H](CCC(N)=O)C(=O)N[C@@H](CO)C(=O)N[C@H](C(=O)N[C@@H](CCCN)C(=O)N[C@@H](CC(N)=O)C(=O)N[C@@H](CCCN)C(=O)NCC(=O)NCC(=O)N1CCC[C@H]1C(=O)N[C@@H](CO)C(=O)N[C@@H](CO)C(=O)NCC(=O)N[C@@H](C)C(=O)N1CCC[C@H]1C(=O)N1CCC[C@H]1C(=O)N1CCC[C@H]1C(=O)N[C@@H](CO)C(=O)O)[C@@H](C)CC)C(C)C)[C@@H](C)O)[C@@H](C)O)C(C)C` [Agonist P392] (Hexanoyl-HSDAVFTDSYT[Orn]LR[Aib]QVAA[Aib]KYLQSI[Orn]N[Orn]GGPSSGAPPPS-OH; C-terminus assumed) and `CCCCCC(=O)N[C@@H](Cc1c[nH]cn1)C(=O)N[C@@H](CO)C(=O)N[C@@H](CC(=O)O)C(=O)N[C@@H](C)C(=O)N[C@H](C(=O)N[C@@H](Cc1ccccc1)C(=O)N[C@H](C(=O)N[C@@H](CC(=O)O)C(=O)N[C@@H](CC(N)=O)C(=O)N[C@@H](Cc1ccc(O)cc1)C(=O)N[C@H](C(=O)N[C@@H](CCCN)C(=O)N[C@@H](CC(C)C)C(=O)N[C@@H](CCCNC(=N)N)C(=O)NC(C)(C)C(=O)N[C@@H](CCC(N)=O)C(=O)N[C@@H](CO)C(=O)N[C@@H](C)C(=O)N[C@@H](C)C(=O)NC(C)(C)C(=O)N[C@@H](CCCCN)C(=O)N[C@@H](Cc1ccc(O)cc1)C(=O)N[C@@H](CC(C)C)C(=O)N[C@@H](CCC(N)=O)C(=O)N[C@@H](CO)C(=O)N[C@H](C(=O)N[C@@H](CCCN)C(=O)N[C@@H](CC(N)=O)C(=O)N[C@@H](CCCN)C(=O)NCC(=O)NCC(=O)N1CCC[C@H]1C(=O)N[C@@H](CO)C(=O)N[C@@H](CO)C(=O)NCC(=O)N[C@@H](C)C(=O)N1CCC[C@H]1C(=O)N1CCC[C@H]1C(=O)N1CCC[C@H]1C(=O)N[C@@H](CO)C(=O)O)[C@@H](C)CC)[C@@H](C)O)[C@@H](C)O)C(C)C` [Agonist P389] (Hexanoyl-HSDAVFTDNYT[Orn]LR[Aib]QSAA[Aib]KYLQSI[Orn]N[Orn]GGPSSGAPPPS-OH; C-terminus assumed) cannot be ordered by IC50: greater than 25000 nM for the first, greater than 25000 nM for the second.

`CCCCCC(=O)N[C@@H](Cc1c[nH]cn1)C(=O)N[C@@H](CO)C(=O)N[C@@H](CCC(=O)O)C(=O)N[C@@H](C)C(=O)N[C@H](C(=O)N[C@@H](Cc1ccccc1)C(=O)N[C@H](C(=O)N[C@@H](CCC(=O)O)C(=O)N[C@@H](CCC(N)=O)C(=O)N[C@@H](Cc1ccc(OC)cc1)C(=O)N[C@H](C(=O)N[C@@H](CCCN)C(=O)N[C@@H](CC(C)C)C(=O)N[C@@H](CCCNC(=N)N)C(=O)NC(C)(C)C(=O)N[C@@H](CCC(N)=O)C(=O)N[C@@H](CC(C)C)C(=O)N[C@@H](C)C(=O)N[C@@H](C)C(=O)NC(C)(C)C(=O)N[C@@H](CCCN)C(=O)N[C@@H](Cc1ccc(O)cc1)C(=O)N[C@@H](CC(C)C)C(=O)N[C@@H](CCC(N)=O)C(=O)N[C@@H](CO)C(=O)N[C@H](C(=O)N[C@@H](CCCN)C(=O)N[C@@H](CCCN)C(=O)NCC(=O)NCC(=O)N1CCC[C@H]1C(=O)N[C@@H](CO)C(=O)N[C@@H](CO)C(=O)NCC(=O)N[C@@H](C)C(=O)N1CCC[C@H]1C(=O)N1CCC[C@H]1C(=O)N1CCC[C@H]1C(=O)N[C@@H](CO)C(=O)O)[C@@H](C)CC)[C@@H](C)O)[C@@H](C)O)C(C)C` [Agonist P393] (Hexanoyl-HSEAVFTEQY(Me)T[Orn]LR[Aib]QLAA[Aib][Orn]YLQSI[Orn][Orn]GGPSSGAPPPS-OH; C-terminus assumed) and `CCCCCC(=O)N[C@@H](Cc1c[nH]cn1)C(=O)N[C@@H](CO)C(=O)N[C@@H](CC(=O)O)C(=O)N[C@@H](C)C(=O)N[C@H](C(=O)N[C@@H](Cc1ccccc1)C(=O)N[C@H](C(=O)N[C@@H](CC(=O)O)C(=O)N[C@@H](CC(N)=O)C(=O)N[C@@H](Cc1ccc(O)cc1)C(=O)N[C@H](C(=O)N[C@@H](CCCN)C(=O)N[C@@H](CC(C)C)C(=O)N[C@@H](CCCNC(=N)N)C(=O)NC(C)(C)C(=O)N[C@@H](CCC(N)=O)C(=O)N[C@H](C(=O)N[C@@H](C)C(=O)N[C@@H](C)C(=O)NC(C)(C)C(=O)N[C@@H](CCCCN)C(=O)N[C@@H](CO)C(=O)N[C@@H](CC(C)C)C(=O)N[C@@H](CCC(N)=O)C(=O)N[C@@H](CO)C(=O)N[C@H](C(=O)N[C@@H](CCCN)C(=O)N[C@@H](CC(N)=O)C(=O)N[C@@H](CCCN)C(=O)NCC(=O)NCC(=O)N1CCC[C@H]1C(=O)N[C@@H](CO)C(=O)N[C@@H](CO)C(=O)NCC(=O)N[C@@H](C)C(=O)N1CCC[C@H]1C(=O)N1CCC[C@H]1C(=O)N1CCC[C@H]1C(=O)N[C@@H](CO)C(=O)O)[C@@H](C)CC)C(C)C)[C@@H](C)O)[C@@H](C)O)C(C)C` [Agonist P385] (Hexanoyl-HSDAVFTDNYT[Orn]LR[Aib]QVAA[Aib]KSLQSI[Orn]N[Orn]GGPSSGAPPPS-OH; C-terminus assumed) cannot be ordered by IC50: greater than 25000 nM for the first, greater than 25000 nM for the second.

Molecular target: T2, human VPAC2 receptor
Assay: cell-based or functional assay
Settings: not given

In order of rising “Human VPAC2 Receptor: Alpha Screen (EC50; nM), cAMP generation” value:
1. B5  0.11 nM
2. B6  0.12 nM
3. B7  0.12 nM
4. B3  0.15 nM
5. B1  0.19 nM
6. B4  0.24 nM
7. B2  6.5 nM

Molecular target: T3, rat VPAC1 receptor
Assay: cell-based or functional assay
Settings: not given

In order of falling “Rat VPAC1 Receptor: DiscoveRx (EC50; nM), cAMP generation” value:
1. B2  75.3 nM
2. B4  1.42 nM
3. B7  1.34 nM
4. B5  1.05 nM
5. B3  0.35 nM

Molecular target: T4, rat VPAC2 receptor
Assay: cell-based or functional assay
Settings: not given

In order of rising “Rat VPAC2 Receptor: DiscoveRx (EC50; nM), cAMP generation” value:
1. B3  0.03 nM
2. B4  0.03 nM
3. B6  0.03 nM
4. B8  0.04 nM
5. B5  0.05 nM
6. B7  0.09 nM
7. B2  6.14 nM

— patent US20080194482A1, “Selective Apac2 Receptor Peptide Agonists” (priority 2005, published 2008)
